Data from patent publication US20180256645A1.

Biological target: murine/mouse full length CXCR6 (chemokine receptor 6), expressed on transduced murine CD8+ T cells (murine/mouse) (UniProt Q9EQ16)
Test: cell-based or functional assay

Sequence of UniProt Q9EQ16 (Q9EQ16 1-350): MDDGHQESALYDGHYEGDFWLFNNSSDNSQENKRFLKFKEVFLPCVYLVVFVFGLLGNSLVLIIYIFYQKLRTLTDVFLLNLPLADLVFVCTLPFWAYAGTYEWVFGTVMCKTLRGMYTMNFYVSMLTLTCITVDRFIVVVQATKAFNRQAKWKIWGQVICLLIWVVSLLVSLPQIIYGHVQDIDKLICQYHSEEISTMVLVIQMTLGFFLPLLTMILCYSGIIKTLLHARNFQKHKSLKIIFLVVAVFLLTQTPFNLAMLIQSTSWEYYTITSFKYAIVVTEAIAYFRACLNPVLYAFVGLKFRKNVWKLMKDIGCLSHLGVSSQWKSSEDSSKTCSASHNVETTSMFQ

**Q.** How did the internalisation and recycling of CXCR6 (live confocal fluorescence microscopy) turn out when “recombinant CXCL16 (SEQ ID NO: 9) (Peprotech, Hamburg) (from UniProt Q8BSU2 27-114) (ligand)” was run?
**A.** 30 min
